Measured values from article PMC5975648.

Assay: confocal fluorescence microscopy, ER and mitochondria markers
Conditions: glycan lost; control: Psd1-EGFP

B1: Psd1: Psd1(N34Q)-EGFP (protein)
parent chain: MSIMPVKNALAQGRTLLMGRMPAVKFSTRMQLRNRTAVLWNRKFSTRLFVQQRRSSGEIVDRAKAAAANSGRKQVSMKWVVLTSFTIVLGTILLVSRNDSTEEDATEGKKGRRTRKIKIFNNNWLFFCYSTLPLNAMSRLWGQVNSLTLPIWVRPWGYRLYSFLFGVNLDEMEDPDLTHYANLSEFFYRNIKPGTRPVAQGEDVIASPSDGKILQVGIINSETGEIEQVKGMTYSIKEFLGTHSHPLMSKSASSLDLTSDEEKHREFARVNRIQLAGSEDTEQPLLNFKNEGDQSVREFKPSVSKNIHLLSQLSLNYFSNGFSCSEPHDTELFFAVIYLAPGDYHHFHSPVDWVCKVRRHFPGDLFSVAPYFQRNFPNLFVLNERVALLGSWKYGFFSMTPVGATNVGSIKLNFDQEFVTNSKSDKHLEPHTCYQAVYENASKILGGMPLVKGEEMGGFELGSTVVLCFEAPTEFKFDVRVGDKVKMGQKLGIIGKNDLK
  localisation_or_trafficking: no change
